{"source": "patent US20260184785A1", "about": "(CYTOCARES SHANGHAI, published 2026)", "target": "T1, trispecific antibody LMOAME", "T1 construct": "Trispecific single-chain tandem scFv, monomer of 83.8 kDa without Fc; also called CD19×CD3×CD28 antibody; LMOAME DP", "assay": "ELISA, antigen-Fc coated on the plate, detection with HRP-protein L", "description": "Recombinant human CD19 antigen (CD19 (C-Fc), Novoprotein, Cat #: C572), and CD28 antigen (CD28 (C-Fc), Novoprotein, Cat #: C81) were diluted to 2 μg/mL with a protein coating solution, and plates were coated with the dilutions of 100 μL per well overnight at 2-8° C. The plates were washed the next day and blocked with a blocking solution of 1% Casein+3% BSA (PBS+2% BSA (V/W)).\nThe diluted antibodies were added to the 96-well flat bottom plates coated with antigens respectively and incubated for 1 h at 37° C."}
{"binder": "Recombinant human CD19 antigen (CD19 (C-Fc), Novoprotein, Cat #: C572) (Fc fusion, UniProt P15391 20-291, looked up, Bought C-terminal Fc fusion; also called rhCD19; hCD19 antigen; not shown: C-terminal Fc tag of the bought protein) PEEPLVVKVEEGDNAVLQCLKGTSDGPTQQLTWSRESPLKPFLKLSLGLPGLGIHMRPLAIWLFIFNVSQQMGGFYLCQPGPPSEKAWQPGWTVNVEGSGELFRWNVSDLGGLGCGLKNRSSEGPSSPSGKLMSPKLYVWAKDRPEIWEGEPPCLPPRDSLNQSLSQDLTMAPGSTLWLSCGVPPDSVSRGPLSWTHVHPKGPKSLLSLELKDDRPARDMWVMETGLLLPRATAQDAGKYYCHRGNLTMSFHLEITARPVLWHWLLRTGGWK", "values": [{"measurement": "binding result", "result": "binds"}]}
